# Test results taken from patent US20250218531A1 (ABSCI, published 2025).
# Changes are numbered by the printed parent chain.
# B1: De novo trastuzumab HCDR2|3 variant IYPEDGST / ARSGGSSTYAYDY (Fab, V domains shown)
# VH: EVQLVESGGGLVQPGGSLRLSCAASGFNIKDTYIHWVRQAPGKGLEWVARIYPEDGSTRYADSVKGRFTISADTSKNTAYLQMNSLRAEDTAVYYCARSGGSSTYAYDYWGQGTLVTVSS
# VL: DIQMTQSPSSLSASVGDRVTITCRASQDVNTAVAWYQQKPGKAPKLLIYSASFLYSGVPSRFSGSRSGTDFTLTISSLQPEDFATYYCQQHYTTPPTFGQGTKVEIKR
# B2: Multi-step trastuzumab HCDR3 variant ARDGGRSYYSFYY (SEQ ID NO: 538) (Fab, V domains shown)
# VH: B1 VH with E54T, D55N, S57Y, S99D, S102R, T104Y, A106S, Y107F, D108Y
# VL: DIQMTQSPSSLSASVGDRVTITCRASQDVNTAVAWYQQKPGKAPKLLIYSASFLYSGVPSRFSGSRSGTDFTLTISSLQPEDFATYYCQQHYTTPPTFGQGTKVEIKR
# B3: Multi-step trastuzumab HCDR3 variant ARSGGSSFYGMDY (SEQ ID NO: 519) (Fab, V domains shown)
# VH: B1 VH with E54T, D55N, S57Y, T104F, A106G, Y107M
# VL: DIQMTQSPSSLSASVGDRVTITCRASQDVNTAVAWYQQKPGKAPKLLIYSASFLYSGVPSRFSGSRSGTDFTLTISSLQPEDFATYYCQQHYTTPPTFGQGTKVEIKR
# B4: Multi-step trastuzumab HCDR3 variant ARDGGSSSYSYSY (SEQ ID NO: 535) (Fab, V domains shown)
# VH: B1 VH with E54T, D55N, S57Y, S99D, T104S, A106S, D108S
# VL: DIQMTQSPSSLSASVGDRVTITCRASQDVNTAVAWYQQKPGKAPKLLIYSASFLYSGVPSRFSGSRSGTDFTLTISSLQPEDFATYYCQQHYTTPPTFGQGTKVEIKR
# B5: De novo trastuzumab HCDR2|3 variant IYSSDGYT / ARSGGSSYYYYDY (Fab, V domains shown)
# VH: B1 VH with P53S, E54S, S57Y, T104Y, A106Y
# VL: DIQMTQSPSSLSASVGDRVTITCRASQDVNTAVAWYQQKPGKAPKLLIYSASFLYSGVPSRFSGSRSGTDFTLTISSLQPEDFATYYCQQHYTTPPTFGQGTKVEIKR
# B6: Multi-step trastuzumab HCDR3 variant ARDGGRGRYAMDY (SEQ ID NO: 541) (Fab, V domains shown)
# VH: B1 VH with E54T, D55N, S57Y, S99D, S102R, S103G, T104R, Y107M
# VL: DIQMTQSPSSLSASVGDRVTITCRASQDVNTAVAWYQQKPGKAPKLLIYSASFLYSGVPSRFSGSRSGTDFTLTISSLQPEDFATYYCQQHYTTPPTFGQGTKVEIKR
# B7: Multi-step trastuzumab HCDR3 variant ARSGGYYHYGFVY (SEQ ID NO: 544) (Fab, V domains shown)
# VH: B1 VH with E54T, D55N, S57Y, S102Y, S103Y, T104H, A106G, Y107F, D108V
# VL: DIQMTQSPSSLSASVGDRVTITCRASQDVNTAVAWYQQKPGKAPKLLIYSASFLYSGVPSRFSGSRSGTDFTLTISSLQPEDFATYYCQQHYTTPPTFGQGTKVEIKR
# B8: Multi-step trastuzumab HCDR3 variant ARTGGSSYYAYDY (SEQ ID NO: 520) (Fab, V domains shown)
# VH: B1 VH with E54T, D55N, S57Y, S99T, T104Y
# VL: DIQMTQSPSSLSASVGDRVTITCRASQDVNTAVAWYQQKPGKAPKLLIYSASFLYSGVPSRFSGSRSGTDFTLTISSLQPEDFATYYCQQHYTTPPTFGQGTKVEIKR
# B9: Multi-step trastuzumab HCDR3 variant ARSRGSSSYMMDY (SEQ ID NO: 512) (Fab, V domains shown)
# VH: B1 VH with E54T, D55N, S57Y, G100R, T104S, A106M, Y107M
# VL: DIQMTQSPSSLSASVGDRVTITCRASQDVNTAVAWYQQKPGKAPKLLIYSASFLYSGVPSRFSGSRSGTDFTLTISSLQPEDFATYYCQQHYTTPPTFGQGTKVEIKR
# B10: Multi-step trastuzumab HCDR3 variant ARSGGYYTYGFDY (SEQ ID NO: 548) (Fab, V domains shown)
# VH: B1 VH with E54T, D55N, S57Y, S102Y, S103Y, A106G, Y107F
# VL: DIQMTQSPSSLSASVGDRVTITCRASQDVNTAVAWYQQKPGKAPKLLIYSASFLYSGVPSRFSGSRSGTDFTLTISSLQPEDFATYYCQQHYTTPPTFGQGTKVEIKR
# B11: Multi-step trastuzumab HCDR3 variant ARYGGSSYYYYDY (SEQ ID NO: 529) (Fab, V domains shown)
# VH: B1 VH with E54T, D55N, S57Y, S99Y, T104Y, A106Y
# VL: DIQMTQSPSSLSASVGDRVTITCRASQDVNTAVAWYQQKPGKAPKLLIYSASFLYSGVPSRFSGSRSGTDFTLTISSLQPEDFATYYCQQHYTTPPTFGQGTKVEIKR
# B12: Multi-step trastuzumab HCDR3 variant ARVGGRGYYAYDY (SEQ ID NO: 552) (Fab, V domains shown)
# VH: B1 VH with E54T, D55N, S57Y, S99V, S102R, S103G, T104Y
# VL: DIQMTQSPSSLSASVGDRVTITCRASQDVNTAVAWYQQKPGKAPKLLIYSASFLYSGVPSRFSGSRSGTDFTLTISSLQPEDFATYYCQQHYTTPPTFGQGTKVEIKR
# B13: Multi-step trastuzumab HCDR3 variant ARYGGGYYYYYDY (SEQ ID NO: 531) (Fab, V domains shown)
# VH: B1 VH with E54T, D55N, S57Y, S99Y, S102G, S103Y, T104Y, A106Y
# VL: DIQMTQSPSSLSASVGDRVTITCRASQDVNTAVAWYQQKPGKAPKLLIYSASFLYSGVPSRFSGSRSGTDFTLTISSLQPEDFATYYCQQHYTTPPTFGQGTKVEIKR
# B14: De novo trastuzumab HCDR2|3 variant IYPSNGYT / ARSGYYYSYSFDY (Fab, V domains shown)
# VH: B1 VH with E54S, D55N, S57Y, G101Y, S102Y, S103Y, T104S, A106S, Y107F
# VL: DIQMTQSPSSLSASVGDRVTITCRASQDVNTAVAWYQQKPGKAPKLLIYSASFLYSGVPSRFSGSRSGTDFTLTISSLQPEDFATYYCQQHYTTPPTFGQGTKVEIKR
# B15: Multi-step trastuzumab HCDR3 variant ARDGGGGFYAYDY (SEQ ID NO: 534) (Fab, V domains shown)
# VH: B1 VH with E54T, D55N, S57Y, S99D, S102G, S103G, T104F
# VL: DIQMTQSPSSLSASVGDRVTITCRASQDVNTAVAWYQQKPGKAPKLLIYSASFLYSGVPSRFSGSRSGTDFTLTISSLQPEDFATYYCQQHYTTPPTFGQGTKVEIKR
# B16: De novo trastuzumab HCDR2|3 variant IYPSSGYT / ASSGGRYYYYYDY (Fab, V domains shown)
# VH: B1 VH with E54S, D55S, S57Y, R98S, S102R, S103Y, T104Y, A106Y
# VL: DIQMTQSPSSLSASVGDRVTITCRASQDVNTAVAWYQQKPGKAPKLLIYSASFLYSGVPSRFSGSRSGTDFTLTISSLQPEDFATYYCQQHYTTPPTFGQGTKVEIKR
# B17: Multi-step trastuzumab HCDR3 variant ARDRGVSGYYLYY (SEQ ID NO: 516) (Fab, V domains shown)
# VH: B1 VH with E54T, D55N, S57Y, S99D, G100R, S102V, T104G, A106Y, Y107L, D108Y
# VL: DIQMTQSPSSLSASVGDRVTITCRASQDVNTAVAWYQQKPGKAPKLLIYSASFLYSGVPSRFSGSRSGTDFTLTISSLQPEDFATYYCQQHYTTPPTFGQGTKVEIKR
# B18: Multi-step trastuzumab HCDR3 variant ARYGGSSYYYFDY (SEQ ID NO: 528) (Fab, V domains shown)
# VH: B1 VH with E54T, D55N, S57Y, S99Y, T104Y, A106Y, Y107F
# VL: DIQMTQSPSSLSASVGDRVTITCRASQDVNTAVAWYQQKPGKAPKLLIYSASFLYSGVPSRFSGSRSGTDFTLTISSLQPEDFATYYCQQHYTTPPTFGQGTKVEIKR
# B19: De novo trastuzumab HCDR2|3 variant IYPSNGYT / ARYGGSYAYYFYY (Fab, V domains shown)
# VH: B1 VH with E54S, D55N, S57Y, S99Y, S103Y, T104A, A106Y, Y107F, D108Y
# VL: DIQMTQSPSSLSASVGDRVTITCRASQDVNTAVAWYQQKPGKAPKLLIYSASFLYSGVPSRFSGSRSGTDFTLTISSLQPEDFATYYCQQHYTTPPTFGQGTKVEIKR
# notes: also called AI Design 8
# B20: Multi-step trastuzumab HCDR3 variant ARSSGSSYYGFDY (SEQ ID NO: 526) (Fab, V domains shown)
# VH: B1 VH with E54T, D55N, S57Y, G100S, T104Y, A106G, Y107F
# VL: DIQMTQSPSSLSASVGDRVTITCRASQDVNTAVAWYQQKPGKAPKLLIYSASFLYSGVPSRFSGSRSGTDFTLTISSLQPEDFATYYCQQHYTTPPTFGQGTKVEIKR
# B21: Multi-step trastuzumab HCDR3 variant ARSGGSYSYSFDV (SEQ ID NO: 522) (Fab, V domains shown)
# VH: B1 VH with E54T, D55N, S57Y, S103Y, T104S, A106S, Y107F, Y109V
# VL: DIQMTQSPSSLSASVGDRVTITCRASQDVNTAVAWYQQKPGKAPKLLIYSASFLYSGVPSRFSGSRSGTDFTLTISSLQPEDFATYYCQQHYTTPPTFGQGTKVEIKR
# B22: Multi-step trastuzumab HCDR3 variant ARYRGRGFYSFDY (SEQ ID NO: 532) (Fab, V domains shown)
# VH: B1 VH with E54T, D55N, S57Y, S99Y, G100R, S102R, S103G, T104F, A106S, Y107F
# VL: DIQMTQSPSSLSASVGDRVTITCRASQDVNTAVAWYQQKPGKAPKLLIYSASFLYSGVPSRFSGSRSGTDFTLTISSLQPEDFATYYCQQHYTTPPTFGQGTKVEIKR
# B23: Multi-step trastuzumab HCDR3 variant ARSGGRYTYGFDY (SEQ ID NO: 551) (Fab, V domains shown)
# VH: B1 VH with E54T, D55N, S57Y, S102R, S103Y, A106G, Y107F
# VL: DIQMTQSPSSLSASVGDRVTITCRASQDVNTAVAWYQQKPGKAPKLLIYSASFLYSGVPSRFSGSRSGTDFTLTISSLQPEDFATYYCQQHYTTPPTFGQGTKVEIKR
# B24: Multi-step trastuzumab HCDR3 variant ARYGGSSNYYYDY (SEQ ID NO: 518) (Fab, V domains shown)
# VH: B1 VH with E54T, D55N, S57Y, S99Y, T104N, A106Y
# VL: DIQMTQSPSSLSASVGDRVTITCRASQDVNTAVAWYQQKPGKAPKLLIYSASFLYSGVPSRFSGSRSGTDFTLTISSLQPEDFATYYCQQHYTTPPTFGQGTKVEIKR
# B25: Multi-step trastuzumab HCDR3 variant ARYGGRSSYYFDY (SEQ ID NO: 545) (Fab, V domains shown)
# VH: B1 VH with E54T, D55N, S57Y, S99Y, S102R, T104S, A106Y, Y107F
# VL: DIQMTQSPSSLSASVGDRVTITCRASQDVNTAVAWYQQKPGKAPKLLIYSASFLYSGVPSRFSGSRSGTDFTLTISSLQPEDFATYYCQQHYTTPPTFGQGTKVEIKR
# B26: Multi-step trastuzumab HCDR3 variant ARSTGSGFYSYDY (SEQ ID NO: 547) (Fab, V domains shown)
# VH: B1 VH with E54T, D55N, S57Y, G100T, S103G, T104F, A106S
# VL: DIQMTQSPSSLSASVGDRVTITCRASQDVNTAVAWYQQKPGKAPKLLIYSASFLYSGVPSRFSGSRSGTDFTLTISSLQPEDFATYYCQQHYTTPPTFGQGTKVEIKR
# B27: Multi-step trastuzumab HCDR3 variant ARSGGSSYYYYDY (SEQ ID NO: 508) (Fab, V domains shown)
# VH: B1 VH with E54T, D55N, S57Y, T104Y, A106Y
# VL: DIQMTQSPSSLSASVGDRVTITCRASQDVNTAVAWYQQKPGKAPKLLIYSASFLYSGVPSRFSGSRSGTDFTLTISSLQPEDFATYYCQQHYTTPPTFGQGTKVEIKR
# B28: Multi-step trastuzumab HCDR3 variant ARYGGRGYYSFDY (SEQ ID NO: 533) (Fab, V domains shown)
# VH: B1 VH with E54T, D55N, S57Y, S99Y, S102R, S103G, T104Y, A106S, Y107F
# VL: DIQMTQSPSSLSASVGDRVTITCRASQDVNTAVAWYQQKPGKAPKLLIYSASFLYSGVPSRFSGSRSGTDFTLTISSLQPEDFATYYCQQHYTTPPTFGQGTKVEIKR
# B29: De novo trastuzumab HCDR2|3 variant IYPSNGYT / ARYRGSSSYYFDY (Fab, V domains shown)
# VH: B1 VH with E54S, D55N, S57Y, S99Y, G100R, T104S, A106Y, Y107F
# VL: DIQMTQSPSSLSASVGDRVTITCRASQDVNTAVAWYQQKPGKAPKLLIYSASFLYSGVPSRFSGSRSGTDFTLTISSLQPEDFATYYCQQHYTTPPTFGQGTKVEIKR
# B30: Multi-step trastuzumab HCDR3 variant ARSGGGSYYYYDY (SEQ ID NO: 546) (Fab, V domains shown)
# VH: B1 VH with E54T, D55N, S57Y, S102G, T104Y, A106Y
# VL: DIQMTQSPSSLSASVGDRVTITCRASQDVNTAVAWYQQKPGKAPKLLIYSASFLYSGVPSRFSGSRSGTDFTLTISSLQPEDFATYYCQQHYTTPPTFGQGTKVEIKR
# B31: Multi-step trastuzumab HCDR3 variant ARSYGSGSYSFDY (SEQ ID NO: 514) (Fab, V domains shown)
# VH: B1 VH with E54T, D55N, S57Y, G100Y, S103G, T104S, A106S, Y107F
# VL: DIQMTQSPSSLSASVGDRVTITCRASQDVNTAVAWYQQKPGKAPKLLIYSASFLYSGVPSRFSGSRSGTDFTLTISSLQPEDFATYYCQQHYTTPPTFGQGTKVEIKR
# B32: De novo trastuzumab HCDR2|3 variant IYPSNGYT / ARSSGYYSYSYDY (Fab, V domains shown)
# VH: B1 VH with E54S, D55N, S57Y, G100S, S102Y, S103Y, T104S, A106S
# VL: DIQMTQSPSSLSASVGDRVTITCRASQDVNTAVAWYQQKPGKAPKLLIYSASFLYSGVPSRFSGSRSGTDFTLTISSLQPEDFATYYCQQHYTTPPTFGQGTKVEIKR
# B33: Multi-step trastuzumab HCDR3 variant ARDGGGGVYAFTY (SEQ ID NO: 525) (Fab, V domains shown)
# VH: B1 VH with E54T, D55N, S57Y, S99D, S102G, S103G, T104V, Y107F, D108T
# VL: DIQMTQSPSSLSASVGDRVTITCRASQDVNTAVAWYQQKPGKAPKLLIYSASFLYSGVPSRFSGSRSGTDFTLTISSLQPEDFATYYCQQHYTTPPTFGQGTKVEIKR
# B34: De novo trastuzumab HCDR2|3 variant IYPSNGYT / ARYYGGSMYYYGY (Fab, V domains shown)
# VH: B1 VH with E54S, D55N, S57Y, S99Y, G100Y, S102G, T104M, A106Y, D108G
# VL: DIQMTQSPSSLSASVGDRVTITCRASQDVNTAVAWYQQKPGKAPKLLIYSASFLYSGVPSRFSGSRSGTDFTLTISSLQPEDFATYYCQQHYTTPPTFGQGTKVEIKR
# B35: Multi-step trastuzumab HCDR3 variant ARSGGSGYYSYNY (SEQ ID NO: 523) (Fab, V domains shown)
# VH: B1 VH with E54T, D55N, S57Y, S103G, T104Y, A106S, D108N
# VL: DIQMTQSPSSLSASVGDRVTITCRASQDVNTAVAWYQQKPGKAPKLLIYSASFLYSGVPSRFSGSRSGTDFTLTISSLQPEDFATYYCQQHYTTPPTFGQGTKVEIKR
# B36: Multi-step trastuzumab HCDR3 variant ARVGGYGYYSYDY (SEQ ID NO: 539) (Fab, V domains shown)
# VH: B1 VH with E54T, D55N, S57Y, S99V, S102Y, S103G, T104Y, A106S
# VL: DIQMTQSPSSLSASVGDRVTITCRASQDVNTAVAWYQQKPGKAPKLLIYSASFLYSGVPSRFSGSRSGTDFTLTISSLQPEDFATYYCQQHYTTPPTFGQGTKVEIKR
# B37: Multi-step trastuzumab HCDR3 variant ARSSGYYYYGFVY (SEQ ID NO: 540) (Fab, V domains shown)
# VH: B1 VH with E54T, D55N, S57Y, G100S, S102Y, S103Y, T104Y, A106G, Y107F, D108V
# VL: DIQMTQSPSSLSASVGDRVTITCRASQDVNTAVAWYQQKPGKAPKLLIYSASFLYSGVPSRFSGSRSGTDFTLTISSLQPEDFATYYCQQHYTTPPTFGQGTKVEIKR
# B38: Multi-step trastuzumab HCDR3 variant ARYGGSYFYYYSY (SEQ ID NO: 517) (Fab, V domains shown)
# VH: B1 VH with E54T, D55N, S57Y, S99Y, S103Y, T104F, A106Y, D108S
# VL: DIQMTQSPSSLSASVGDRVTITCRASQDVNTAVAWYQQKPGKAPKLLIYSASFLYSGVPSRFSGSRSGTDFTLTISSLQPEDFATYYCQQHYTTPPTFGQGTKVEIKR
# B39: Multi-step trastuzumab HCDR3 variant ARYGGDYYYYYDY (SEQ ID NO: 527) (Fab, V domains shown)
# VH: B1 VH with E54T, D55N, S57Y, S99Y, S102D, S103Y, T104Y, A106Y
# VL: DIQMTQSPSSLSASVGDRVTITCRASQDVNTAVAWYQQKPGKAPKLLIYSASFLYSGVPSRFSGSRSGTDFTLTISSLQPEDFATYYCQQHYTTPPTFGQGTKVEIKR
# Biological target: human epidermal growth factor receptor 2 (HER2) extracellular domain (human, UniProt P04626 23-629)
# Assay: SPR, Fab format
Binder,Kd [nM],log(KD (M)) [log M]
B1,669,-6.17
B2,104,-6.98
B3,680,-6.17
B4,146,-6.83
B5,810,-6.09
B6,402,-6.4
B7,228,-6.64
B8,901,-6.05
B9,566,-6.25
B10,338,-6.47
B11,72.3,-7.14
B12,2290,-5.64
B13,57.6,-7.24
B14,348,-6.46
B15,124,-6.91
B16,591,-6.23
B17,567,-6.25
B18,97.2,-7.01
B19,18.6,-7.73
B20,668,-6.18

Binder,Kd [nM],log(KD (M)) [log M]
B21,1070,-5.97
B22,22,-7.66
B23,1410,-5.85
B24,441,-6.36
B25,257,-6.59
B26,330,-6.48
B27,1070,-5.97
B28,26.2,-7.58
B29,907,-6.04
B30,308,-6.51
B31,495,-6.31
B32,230,-6.64
B33,364,-6.44
B34,109,-6.96
B35,603,-6.22
B36,169,-6.77
B37,157,-6.8
B38,7.31,-8.14
B39,57,-7.24
